According to publication PMC9328677 (Science Advances, 2021):
Positions count from the first letter of the chain named. In names and notes the source's numbering stands.

B1: acidic domain of Homo sapiens APLF (APLF^AD, residues 450 to 511), wild type (domain or fragment)
chain: DEDNDNVGQPNEYDLNDSFLDDEEEDYEPTDEDSDWEPGKEDEEKEDVEELLKEAKRFMKRK
notes: acidic domain of human APLF (aprataxin and polynucleotide kinase-like factor), residues 450 to 511; 15N- or 2H/13C/15N-labelled for NMR; Intrinsically disordered; also called APLF^AD WT; WT; source: E. coli BL21 Rosetta2 (DE3), purified (HisTrap, TEV cleavage, anion exchange, second HisTrap)
B2: APLF^AD double anchor mutant Y462A/F468A (DA-34) (domain or fragment)
chain: B1 chain with Y13A, F19A
notes: acidic domain of human APLF, residues 450 to 511; source: E. coli BL21 Rosetta2 (DE3), purified
B3: SUMO-APLF^AD quadruple anchor mutant Y462A/F468A/Y476A/W485A (QA) (domain or fragment)
chain: B1 chain with Y13A, F19A, Y27A, W36A
notes: acidic domain of human APLF, residues 450 to 511; also called APLF^AD QA; source: E. coli BL21 Rosetta2 (DE3), purified; not shown: His tag, N-terminal, cleaved; SUMO, N-terminal, kept
B4: truncated APLF^AD construct corresponding to residues 449 to 490 (APLF^AD-Δ) (domain or fragment)
chain: GLDEDNDNVGQPNEYDLNDSFLDDEEEDYEPTDEDSDWEPGKE
notes: N-terminal Gly as leftover from TEV cleavage site; human APLF residues 449 to 490; Used for crystallisation with tailless Xl. histones and in ITC with the Dm. octamer-mix; source: E. coli BL21 Rosetta2 (DE3), purified
B5: SUMO-APLF^AD truncated QA mutant (QA-Δ, residues 449 to 490) (domain or fragment)
chain: LDEDNDNVGQPNEADLNDSALDDEEEDAEPTDEDSDAEPGKE
notes: human APLF residues 449 to 490; source: E. coli BL21 Rosetta2 (DE3), purified; not shown: His tag, N-terminal, cleaved; SUMO, N-terminal, kept
B6: peptide corresponding to APLF^459–474 (peptide)
peptide: Ac-PNEYDLNDSFLDDEEE-NH2
notes: human APLF residues 459-474; source: synthetic peptide, bought: Biomatik

What was measured:
Conditions in all cases: both partners purified
[1] = biological target: T1, stoichiometric mixture of full-length Drosophila melanogaster H2A-H2B and H3-H4 (octamer-mix) (Drosophila melanogaster, UniProt P84051 1-124; P02283 1-123; P02299 1-136; P84040 1-103); assay: native MS; octamer-mix and APLF^AD mixed at 1:0.25 to 1:3 octamer equivalent to APLF^AD, exchanged into 300 mM ammonium acetate pH 7.5; Exactive Plus EMR
T1 construct: histone H2A, Drosophila melanogaster, full-length; histone H2B, Drosophila melanogaster, full-length; histone H3, Drosophila melanogaster, full-length; histone H4, Drosophila melanogaster, full-length; At 300 mM NaCl without APLF^AD this is a mixture of H2A-H2B dimers and H3-H4 tetramers, not a preformed octamer; also called stoichiometric core-histone mix; histone octamer; copies: 2 + 2 + 2 + 2

[2] = biological target: T1, stoichiometric mixture of full-length …; assay: ITC; 5 μM octamer-mix in the cell titrated with 90 μM APLF^AD in the syringe; 25 mM NaPi pH 7.0, 300 mM NaCl, 25°C; one set of sites model
[3] = biological target: T2, Drosophila melanogaster histone H3-H4 complex, full-length (Drosophila melanogaster, UniProt P02299 1-136; P84040 1-103); assay: NMR titration; 20 μM [U-2H/13C/15N]H3-H4 incubated with 0, 10 or 20 μM APLF 459–474 peptide in 25 mM NaPi pH 7.0, 300 mM NaCl, then exchanged to 50 mM acetate pH 5; TROSY at 900 MHz, 308 K
T2 construct: histone H3, Drosophila melanogaster, full-length; histone H4, Drosophila melanogaster, full-length; Eluted as a histone tetramer in SEC; H3 was 2H/13C/15N-labelled for NMR on H3-H4; also called (H3-H4)2; histone tetramer; copies: 2 + 2

Binder	binding result [2]	further results
B1		stoichiometry N [1]: 2 APLF^AD per histone octamer equivalent
B2	binds	
B3	binds	
B4	binds	
B5	binds	
B6		binding result [3]: binds
